The target of the series is fluorescein isothiocyanate-tagged BSA (FITC-BSA) (UniProt P02769).
Chain of fluorescein isothiocyanate-tagged BSA (FITC-BSA) (P02769 25-607): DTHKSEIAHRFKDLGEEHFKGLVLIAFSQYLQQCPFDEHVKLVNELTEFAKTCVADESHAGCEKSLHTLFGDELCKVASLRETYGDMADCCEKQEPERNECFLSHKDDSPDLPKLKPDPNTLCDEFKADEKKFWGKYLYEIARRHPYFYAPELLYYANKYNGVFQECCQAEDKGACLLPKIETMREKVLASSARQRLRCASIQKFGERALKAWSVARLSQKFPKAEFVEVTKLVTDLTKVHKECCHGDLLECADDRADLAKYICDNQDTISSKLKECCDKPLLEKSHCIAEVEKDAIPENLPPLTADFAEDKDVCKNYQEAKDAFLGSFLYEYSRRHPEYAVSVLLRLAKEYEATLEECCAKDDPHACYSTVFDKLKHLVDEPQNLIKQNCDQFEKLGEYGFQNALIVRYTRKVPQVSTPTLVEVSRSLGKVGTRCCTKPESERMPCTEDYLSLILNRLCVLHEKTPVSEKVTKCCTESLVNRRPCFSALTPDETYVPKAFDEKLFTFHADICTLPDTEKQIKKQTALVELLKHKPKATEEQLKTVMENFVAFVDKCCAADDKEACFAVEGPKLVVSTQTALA

For trypsin, the “increase in fluorescence from proteolytic cleavage of quenched FITC-BSA” value is “This assay confirmed the ability of trypsin@NP to cleave BSA”.

The values are drawn from patent US20240091164.
